The results in this text go back to patent EP4714976A1 (Sunshine Lake Pharma Co., Ltd., dated 2026).

Substitutions are numbered along the chain they refer to.

B1: FR21 (antibody, human IgG1, kappa, V domains shown)
VH: QVQLVQSGAEVKKPGSSVKVSCKASGYIFTTYNVHWVRQAPGQGLEWIGSIYPDNGDTSYNQNFKGRATITADKSTSTAYMELSSLRSEDTAVYYCARGDFAYWGQGTLVTVSS
VL: DIQMTQSPSSLSASVGDRVTITCKASQGVSNDVAWYQQKPGKAPKLLIYSASYRYTGVPSRFSGSGSGTDFTFTISSLQPEDIATYYCQQHSTTPYTFGQGTKLEIKR
notes: also called positive control antibody FR21; positive monoclonal antibody FR21
B2: 3C7-VH2-VL2 (antibody, human IgG1, kappa, V domains shown)
VH: QVQLVQSGAEVKKPGASVKVSCKASGYIFRNYYIHWVRQAPGQGLEWMGAIYPDNGDTSYNQRFKVRATLTADTSTSTVYMELSSLRSEDTAVYYCARAFTYWGQGTTVTVSS
VL: DIQMTQSPSSLSASVGDRVTITCGASENIYGALNWYQRKPGKAPKLLIYGATNLADGVPSRFSGSGSGTDYTLTISSLQPEDFATYYCQNVLSTPYTFGGGTKLEIKR
notes: humanized IgG1
B3: 3H9-VH1-VL1 (antibody, human IgG1, kappa, V domains shown)
VH: QVQLVQSGAEVKKPGASVKVSCKASGYTFTFYNMHWVRQAPGQGLEWIGLIYPDNGDTSYNQKFKGRATLTADTSTSTVYMELSSLRSEDTAVYYCARGGLDYWGQGTTVTVSS
VL: DIQMTQSPSSLSASVGDRVTITCRASENIYSNLAWYQQKPGKSPKLLIYAATNLADGVPSRFSGSGSGTDYTLTISSLQPEDFATYYCQHFWGTPYTFGGGTKVEIKR
notes: humanized IgG1
B4: 3H9-VH0-VL1 (antibody, human IgG1, kappa, V domains shown)
VH: B3 VH with I48M
VL: B3 VL
notes: humanized IgG1
B5: 3H9-VH0-VL3 (antibody, human IgG1, kappa)
heavy: not shown
light: DIQMTQSPSSLSASVGDRVTITCRASENIYSNLAWYQQKPGKSPKLLVYAATNLADGVPSRFSGSGSGTDYTLTISSLQPEDFATYYCQHFWGTPYTFGGGTKLEIKRTVAAPSVFIFPPSDEQLKSGTASVVCLLNNFYPREAKVQWKVDNALQSGNSQESVTEQDSKDSTYSLSSTLTLSKADYEKHKVYACEVTHQGLSSPVTKSFNRGEC
notes: humanized IgG1
B6: 3H9-VH0-VL0 (antibody, human IgG1, kappa, V domains shown)
VH: B3 VH with I48M
VL: B3 VL with S43A, Y71F
notes: humanized IgG1
B7: 3H9-VH1-VL0 (antibody, human IgG1, kappa, V domains shown)
VH: B3 VH
VL: B3 VL with S43A, Y71F
notes: humanized IgG1
B8: 3H9-VH0-VL2 (antibody, human IgG1, kappa)
heavy: not shown
light: B5 light with L104V
notes: humanized IgG1

The target of the first experiment is T1, human FGFR2b (Kaixia Biotechnology, catalog number FGR-HM1BB) (human, UniProt P21802-3 22-378).
T1 construct: extracellular domain; bought; also called hFGFR2b; human FGFR2b protein
T1 sequence (P21802 other isoform, or with tags, fused parts or gaps): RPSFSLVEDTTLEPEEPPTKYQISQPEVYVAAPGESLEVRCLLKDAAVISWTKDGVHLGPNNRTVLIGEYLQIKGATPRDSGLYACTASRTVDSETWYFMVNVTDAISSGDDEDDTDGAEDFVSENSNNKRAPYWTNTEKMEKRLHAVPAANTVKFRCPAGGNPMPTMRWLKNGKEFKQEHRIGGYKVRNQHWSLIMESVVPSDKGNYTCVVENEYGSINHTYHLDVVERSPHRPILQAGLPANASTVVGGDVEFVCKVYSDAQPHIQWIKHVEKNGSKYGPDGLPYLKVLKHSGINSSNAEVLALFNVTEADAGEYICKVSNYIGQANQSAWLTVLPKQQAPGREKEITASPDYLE
Briefly: BLI, antibody on AHC2 sensor. A general note: BLI is a label-free optical method that tracks binding on a fibre tip over time.
In turn, B1 displayed an equilibrium dissociation constant (Kd) of 1.52 nM, a koff of 0.000424 s⁻¹ and a kon of 279000 M⁻¹ s⁻¹.

Take B2: the Kd amounted to 2.03 nM, the dissociation rate constant (koff) is 0.000884 s⁻¹ and the kon worked out at 435000 M⁻¹ s⁻¹.

As for B3, the Kd stood at 8.5 nM, the koff was determined as 0.00241 s⁻¹ and the kon came to 284000 M⁻¹ s⁻¹.

Regarding B4, the dissociation constant Kd stood at 3.55 nM, the koff is 0.00179 s⁻¹ and the kon was found to be 505000 M⁻¹ s⁻¹.

B5: the Kd was 5.09 nM, the off-rate constant (koff) turned out to be 0.00186 s⁻¹ and the kon amounted to 366000 M⁻¹ s⁻¹.

B6 came in with a Kd of 6.51 nM, a koff of 0.00301 s⁻¹ and a kon of 463000 M⁻¹ s⁻¹.

For B7, the Kd is 18.5 nM, the koff is 0.00433 s⁻¹ and the kon amounted to 234000 M⁻¹ s⁻¹.

The molecule B8 displayed a Kd of 5.06 nM, a koff of 0.00186 s⁻¹ and a kon of 367000 M⁻¹ s⁻¹.

For another experiment, the target named is T2, FGFR2b on KATO III cells (human, UniProt P21802-3 22-822).
T2 construct: whole, on cells; also called KATO III cells that overexpress FGFR2b
T2 sequence (P21802 other isoform, or with tags, fused parts or gaps): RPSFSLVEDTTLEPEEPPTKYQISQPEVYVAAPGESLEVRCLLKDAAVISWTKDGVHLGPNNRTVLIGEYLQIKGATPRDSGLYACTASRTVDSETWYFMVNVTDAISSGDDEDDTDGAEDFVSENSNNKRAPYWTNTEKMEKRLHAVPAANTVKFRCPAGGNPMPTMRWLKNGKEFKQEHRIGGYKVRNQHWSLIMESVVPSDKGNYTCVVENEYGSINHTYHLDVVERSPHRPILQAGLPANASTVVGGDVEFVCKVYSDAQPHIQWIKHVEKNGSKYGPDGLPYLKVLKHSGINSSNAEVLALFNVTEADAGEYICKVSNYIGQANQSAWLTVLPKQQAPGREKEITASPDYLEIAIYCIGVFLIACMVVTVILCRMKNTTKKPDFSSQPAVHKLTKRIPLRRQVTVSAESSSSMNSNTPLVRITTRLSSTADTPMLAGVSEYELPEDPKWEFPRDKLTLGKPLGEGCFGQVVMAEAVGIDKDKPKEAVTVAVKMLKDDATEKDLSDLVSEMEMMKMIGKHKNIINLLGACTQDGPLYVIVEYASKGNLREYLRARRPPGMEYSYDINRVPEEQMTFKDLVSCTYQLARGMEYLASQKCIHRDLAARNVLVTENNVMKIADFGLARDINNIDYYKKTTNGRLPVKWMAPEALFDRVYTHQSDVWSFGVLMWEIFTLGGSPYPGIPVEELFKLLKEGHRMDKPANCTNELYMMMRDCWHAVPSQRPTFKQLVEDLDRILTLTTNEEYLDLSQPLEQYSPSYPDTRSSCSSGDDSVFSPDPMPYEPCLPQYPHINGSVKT
Briefly: flow cytometry, KATO III cells. (In general: In flow cytometry, cells or beads pass a laser one at a time.)
B1 yielded an EC50 of 0.586 µg/mL.

The molecule B2 gave an EC50 of 0.559 µg/mL.

B3 returned a 50% effective concentration (EC50) of 0.379 µg/mL.

Molecule B4 came in with an EC50 of 0.18 µg/mL.

The molecule B5 came in with an EC50 of 0.469 µg/mL.

For the molecule B6, the EC50 worked out at 0.336 µg/mL.

B7 registered an EC50 of 0.378 µg/mL.

B8 showed an EC50 of 0.357 µg/mL.

What is called Kd is a measure of binding affinity in units of concentration. A low value points to a tighter complex. In general, koff refers to the rate constant with which the complex falls apart. Read a low koff as slow dissociation. As usually defined, the kon is the rate constant with which the complex forms. High values mean faster complex formation, low ones slower complex formation. One may read the EC50 as the concentration giving half of the maximal effect. Low values mean a more potent agent, high ones a less potent agent.
